Experimental data as given in patent US20240010741A1 (MAB DISCOVERY, published 2024).
Changes are numbered by the printed parent chain. Names and notes keep the numbering of the source.

B1: MAB-16-0484 (antibody, V domains shown)
VH: EVQLEESGGGLVQPGGSLRLSCAASGIDFSRYYYICWVRQAPGKGPEWVACFANGDGSTYYASWAKGRFTISKDTSKTTLYLQMNSLRAEDTATYFCARGADYSGGAAAFNLWGQGTLVTVSS
VL: DIQMTQSPSSLSASVGDRVTITCQASQSISSRLAWYQQKPGQAPKLLIYRASTLASGVPSRFSGSGSGTDFTLTISSLQPEDFATYYCQDYYGSSTEYNAFGQGTKVVIK
notes: humanized anti-CD40 IgG1-LALA antibody of the invention
B2: MAB-16-0267 (antibody, V domains shown)
VH: EVQLEESGGDLVQPGASLRLSCAASGFDFNSNAMSWVRQAPGKGLEWVASIYAGGSGSTYYASWAKGRFTISKDTSKTTLYLQMNSLRAEDTATYFCARGITRLPLWGQGTLVTVSS
VL: B1 VL with R32Y, R50D, T53K, D90G, Y91T, G93Y, S94G, E97T, Y98I, N99S
notes: as for B1
B3: MAB-16-0406 (antibody, V domains shown)
VH: B1 VH with I35M, F52Y, A53S, G105A
VL: B1 VL with Q27E, S30G, S31N, R32A, A34V, T53I, A100T
notes: as for B1
B4: MAB-16-0346 (antibody, V domains shown)
VH: EVQLEESGGGLVQPGGSLRLSCAASGFDFSTNAVSWVRQAPGKGLEWVGSISAGSSGSTYYASWAKGRFTISKDTSKTTLYLQMNSLRAEDTATYFCARGYTYLTLWGQGTLVTVSS
VL: DIVMTQSPSSLSASVGDRVTITCQASHSISSTYLSWYQQKPGQAPKLLIYRASTLASGVPSRFSGSGSGTDFTLTISSLQPEDFATYYCQYTDYGSSYVSTFGQGTKVVIK
notes: as for B1
B5: MAB-16-0464 (antibody, V domains shown)
VH: B4 VH with T31S, V34M, S50T, S52Y, S56N, S58N, Y60D, Y101A, T102S, L104F
VL: DIVMTQSPSSLSASVGDRVTITCQASESVVSNNRLAWYQQKPGQAPKLLIYLASTLPSGVPSRFSGSGSGTDFTLTISSLQPEDFATYYCAGYKSSSTDGTAFGQGTKVVIK
notes: Humanized IgG1-LALA (L234A, L235A in the human IgG1 Fc, EU numbering)
B6: CP-870,893 (antibody, V domains shown)
VH: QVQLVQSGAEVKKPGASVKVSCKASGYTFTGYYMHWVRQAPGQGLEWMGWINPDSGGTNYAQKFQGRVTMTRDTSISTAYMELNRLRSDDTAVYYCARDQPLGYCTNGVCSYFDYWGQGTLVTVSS
VL: DIQMTQSPSSVSASVGDRVTITCRASQGIYSWLAWYQQKPGKAPNLLIYTASTLQSGVPSRFSGSGSGTDFTLTISSLQPEDFATYYCQQANIFPLTFGGGTKVEIKR
B7: MAB-16-0262 (antibody, V domains shown)
VH: EVQLEESGGGLVQPGGSLRLSCAASGFDFSTNAMCWVRQAPGKGLEWVACIAAGSSIITYYASWAKGRFTISKDTSKTTLYLQMNSLRAEDTAVYFCARGLSRFALWGQGTLVTVSS
VL: DIVMTQSPSSLSASVGDRVTITCQASQSISSYLSWYQQKPGQAPKLLIYLTSTLASGVPSRFSGSGSGTDFTLTISSLQPEDFATYYCQGYYSSSSYVSNGFGQGTKVVIK
notes: as for B5
B8: MAB-16-0451 (antibody, V domains shown)
VH: B7 VH with T31S, A33T, A52Y, I57G, I58S, T75I, V94T, A105S
VL: DIVMTQSPSSLSASVGDRVTITCQASQSISNYLAWYQQKPGQAPKLLIYDASKLASGVPSRFSGSGSGTDFTLTISSLQPEDFATYYCQGGDYYGSSYVVAFGGGTKVVIK
notes: as for B5
B9: MAB-16-0489 (antibody, V domains shown)
VH: EVQLEESGGGLVQPGASLRLSCAASGIDFSRYFYVCWVRQAPGKGLEWVGCFANHDDSIYYAGWMNGRFTISKDTSKTTLYLQMNSLRAEDTATYFCARGVDYTVGYGGAAFNLWGQGTLVTVSS
VL: DIVMTQSPSSLSASVGDRVTITCQASQSIGSYLSWYQQKPGQAPKLLIYRATTLASGVPSRFSGSGSGTDFTLTISSLQPEDFATYYCQSYYRDSSSSAFGQGTKVVIK
notes: as for B1
B10: MAB-16-0400 (antibody, V domains shown)
VH: EVQLEESGGGLVQPGGSLRLSCAASGIDFSRYFYMCWVRQAPGKGLEWVACIGPGVSGDTYYASWAKGRFTISGDTSKTTLYLQMNSLRAEDTATYFCARGVDYTYGDAGAAFNLWGQGTLVTVSS
VL: DIVMTQSPSSLSASVGDRVTITCQASQSISSYLAWYQQKPGQAPKLLIYRASILASGVPSRFSGSGSGTDFTLTISSLQPEDFATYYCQTYYSSRTYSYGSPNAFGQGTKVVIK
notes: as for B1
B11: CD40L containing a mouse-IgG2a Fc-tag (AB Biosciences) (Fc fusion, UniProt P29965 113-261, looked up)
chain: MQKGDQNPQIAAHVISEASSKTTSVLQWAEKGYYTMSNNLVTLENGKQLTVKRQGLYYIYAQVTFCSNREASSQAPFIASLCLKSPGRFERILLRAANTHSSAKPCGQQSIHLGGVFELQPGASVFVNVTDPSQVSHGTGFTSFGLLKL
notes: not shown: mouse IgG2a Fc tag

Target: T1, Recombinant cyno-CD40 protein (Acro Biosystems) (cynomolgus monkey (Macaca fascicularis), UniProt G7PG38 21-193)
T1 construct: also called cynomolgus monkey-CD40 protein; recombinant cynomolgus monkey CD40 recombinant protein
Test: ELISA on coated recombinant cynomolgus monkey CD40
Experimental: Binding of humanized anti-CD40 IgG1-LALA monoclonal antibodies to cynomolgus monkey-CD40 protein was tested in a biochemical ELISA. Recombinant cyno-CD40 protein (Acro Biosystems) was incubated in a 384-well Nunc™ MaxiSorp™ plate at a concentration of 0.5 μg/ml in PBS for one hour at room temperature. After washing three times with wash buffer (PBS, 0.1% Tween), plates were blocked with PBS, 2% BSA, 0.05% Tween for one hour at room temperature. Plates were washed again three time with wash buffer and antibodies at concentrations ranging from 500 to 0.03 ng/ml in PBS, 0.5% BSA, 0.05% Tween were incubated for one hour at room temperature. After 3 washes in wash buffer, wells were incubated with 12.5 μl of a 1:3000 dilution of anti-human peroxidase-linked, species specific F(ab) 2 Fragment from goat (AbD Serotec) in ELISA buffer for one hour at room temperature. Wells were washed six times with wash buffer and 15 μl/well TMB substrate solution (Invitrogen) were added. After 10 minutes at room temperature 15 μl Stop solution (1M HCl) were added per well and absorbance at 450 and 620 nm wavelength was measured using a Tecan M1000 microplate reader. Fitting curves and EC50 calculation were obtained by using Excel (Microsoft) and XLfit (IDBS).

Row | EC50 | Binder
1 | 31.8 ng/mL | B1
2 | 7 ng/mL | B2
3 | 11.1 ng/mL | B3
4 | 8.2 ng/mL | B4
5 | 8 ng/mL | B5
6 | 8 ng/mL | B6
7 | 11.9 ng/mL | B7
8 | 10.4 ng/mL | B8

Target: soluble human CD40 monomeric protein (Acro Biosystems) (human, UniProt P25942 21-193)
Test: SPR Biacore T200, antibody captured via anti-human Fc, soluble CD40 as analyte, 1:1 model
Experimental: (§1) a. The biochemical affinities of the antibodies of the invention was determined by surface plasmon resonance measurements. Antibodies were reversibly immobilized to a CM5 sensor chip surface via an anti-human Fc antibody. The kinetics of the interaction of immobilized antibodies with soluble human or cynomolgus monkey CD40 monomeric protein (Acro Biosystems) were analysed on a Biacore T200 SPR instrument. Kinetic data were determined using a Langmuir 1:1 binding model.
(§2) Biochemical affinities were measured by surface plasmon resonance on a Biacore T200 SPR instrument. Kinetic data were determined using a Langmuir 1:1 binding model.

Sequence of soluble human CD40 monomeric protein (Acro Biosystems) (P25942 21-193 limits assumed): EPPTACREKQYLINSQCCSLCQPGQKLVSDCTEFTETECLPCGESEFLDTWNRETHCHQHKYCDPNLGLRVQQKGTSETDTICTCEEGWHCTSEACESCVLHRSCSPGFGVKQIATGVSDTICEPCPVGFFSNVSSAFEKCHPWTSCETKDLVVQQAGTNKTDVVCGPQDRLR

Row | Kd | Binder
9 | 2.6 nM | B5
10 | 8.9 nM | B6
11 | 15.7 nM | B7
12 | 1.2 nM | B8

Target: T2, cell-expressed CD40 (UniProt P25942 21-277, limits assumed)
T2 construct: whole, on cells; also called CD40 on HEK-Blue-CD40L cells; cell surface CD40
Test: cell binding on HEK-Blue-CD40L cells, Alexa-Fluor-488 anti-human IgG, high content imaging
Experimental: Antibodies were added to final concentrations ranging from 1.25 μg/ml to 0.01 ng/ml in 5 μl medium. After 24h cells were washed three times with 25 μl wash buffer (PBS, 0.05% Tween) before Alexa-Fluor-488-conjugated goat anti-human-IgG (Jackson Laboratories) was added at a concentration of 0.8 μg/ml in 20 μl medium. Four hours later, 5 μl Hoechst dye in medium was added to a final concentration of 51.1 µg/ml. Fluorescent cell binding signals were measured using a CellInsight automated high content imager (Thermo Fisher Scientific). Fitting curves and EC50 calculation were obtained by using Excel (Microsoft) and XLfit (IDBS).

T2 sequence (P25942 21-277 limits assumed): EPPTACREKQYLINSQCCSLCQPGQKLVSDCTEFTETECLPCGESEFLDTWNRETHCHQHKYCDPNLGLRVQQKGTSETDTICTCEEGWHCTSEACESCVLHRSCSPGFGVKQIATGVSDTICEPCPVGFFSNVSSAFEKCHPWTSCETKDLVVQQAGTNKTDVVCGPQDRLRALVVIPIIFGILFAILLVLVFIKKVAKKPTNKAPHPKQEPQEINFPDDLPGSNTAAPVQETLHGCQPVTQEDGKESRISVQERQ

Row | EC50 | Binder
13 | 21.9 ng/mL | B1
14 | 3.4 ng/mL | B2
15 | 6.6 ng/mL | B3
16 | 49.5 ng/mL | B4
17 | 3 ng/mL | B5
18 | 3.2 ng/mL | B9
19 | 6.3 ng/mL | B7
20 | 8.9 ng/mL | B8
21 | 5.8 ng/mL | B10

Target: T3, soluble cynomolgus monkey CD40 monomeric protein (Acro Biosystems) (cynomolgus monkey, UniProt G7PG38 21-193)
T3 construct: May be the same reagent as m11; also called cynomolgus monkey CD40 protein
Test: SPR (Biacore T200), antibody captured via anti-human Fc on CM5 chip, soluble cynomolgus CD40 as analyte, Langmuir 1:1 model
Experimental: as §1, §2

Row | Kd | Binder
22 | 2.2 nM | B5
23 | 10.3 nM | B7
24 | 0.8 nM | B8

Target: T2, cell-expressed CD40
Test: flow cytometry on HEK-Blue-CD40L cells preincubated with isotype control IgG1-LALA, CD40L-mouse IgG2a Fc titrated, DyLight 405 anti-mouse IgG [Detection of CD40L binding]
Experimental: (§3) a. Binding of anti CD40 antibodies of the invention to HEK-Blue-CD40L™ cells in the presence of CD40L was tested to verify whether the antibodies bind to the CD40L binding site of cell surface CD40. […] CD40L containing a mouse-IgG2a Fc-tag (AB Biosciences) was added at concentration ranging from 10000 to 9.8 ng/ml and cells were incubated for 60 minutes at 4° C. Anti-CD40 antibodies and CD40L bound to cell-expressed CD40 were detected using secondary DyLight 405-conjugated anti-mouse IgG and Alexa Fluor 488-conjugated anti-human IgG (Jackson Laboratories) and analyzed using FACSVerse instrument (BD).

Row | EC50 (read off the curve) | Binder
25 | ~200 ng/mL | B11

Target: T2, cell-expressed CD40
Test: flow cytometry on HEK-Blue-CD40L cells preincubated with CP870,893 IgG1-LALA at EC90, CD40L-mouse IgG2a Fc titrated, DyLight 405 anti-mouse IgG [Detection of CD40L binding]
Experimental: as §3

Row | EC50 (read off the curve) | Binder
26 | ~400 ng/mL | B11

Target: T4, recombinant CD40 protein (UniProt P25942 21-193, limits assumed)
T4 construct: Construct not described; also called CD40 recombinant protein
Test: CD40L competition ELISA: antibody (5 µg/ml) preincubated with recombinant CD40 (1.7 µg/ml), complex added to coated CD40L, detected with anti-human F(ab)2-peroxidase; a low signal means competition with CD40L
Experimental: Competition of humanized anti-CD40 IgG1-LALA monoclonal antibodies with CD40L binding to CD40 was tested using an ELISA assay. CD40L was coated to the surface of a 384-well Nunc™ MaxiSorp™ plate in a volume of 25 μl PBS and at a concentration of 1 μg/ml for one hour at room temperature. Antibodies were pre-incubated at a concentration of 5 μg/ml with recombinant CD40 protein at a concentration of 1.7 μg/ml in a total volume of 40 μl for 1.5 hours at room temperature in ELISA buffer (PBS, 0.5% BSA, 0.05% Tween). The Nunc™ MaxiSorp™ plate was washed three times with wash buffer (PBS, 0.1% Tween) and blocked for one hour at room temperature with PBS, 2% BSA, 0.05% Tween. After three washes in wash buffer, 25 μl of the antibody-CD40 complex were added to the Nunc™ MaxiSorp™ plate wells and incubated for one hour at room temperature. After 3 washes in wash buffer, wells were incubated with 25 μl of a 1:2000 dilution of anti-human peroxidase-linked, species specific F(ab) 2 Fragment from goat (AbD Serotec) in ELISA buffer for one hour at room temperature. Wells were washed six times with wash buffer and 30 μl/well TMB substrate solution (Invitrogen) were added. After 10 minutes at room temperature, 30 μl Stop solution (1M HCl) was added per well and absorbance at 450 and 620 nm wavelength was measured using a Tecan M1000 microplate reader.

T4 sequence (P25942 21-193 limits assumed): as the sequence (P25942 21-193 limits assumed) above

Row | OD at 450 nm | Binder
27 | 0.07 OD | B1
28 | 0.1 OD | B2
29 | 0.07 OD | B3
30 | 0.09 OD | B4
31 | 0.09 OD | B5
32 | 0.01 OD | B9
33 | 0.11 OD | B7
34 | 0.13 OD | B8
35 | 0.08 OD | B10
